Measured values taken from PMC7943015.

Biological target: CgYps1 (C. glabrata (endogenous in derivatives of strain BG2))
Experiment: co-IP; precleared lysates (6 mg) incubated with anti-CgYps1 antibody-conjugated beads for 12 h at 4°C; blots with anti-CgYps1 and anti-CgPst2; cells untreated or treated with menadione (90 μM for 90 min)

CgPst2 (from UniProt Q6FM13 1-198) (natural protein)
amount of CgPst2 co-precipitated in MD-treated against untreated cells: 40 % lower
